Results as given in the Human Domainome abundance scans (Beltran et al. 2025).
± gives the uncertainty stated by the source.

B1: Homeobox protein SIX3, residues 212 to 262; numbered along this chain, O95343 (parent)
chain: CFKERTRSLLREWYLQDPYPNPSKKRELAQATGLTPTQVGNWFKNRRQRDR

Variants of: B1
Experiment: abundance fitness (aPCA) (normalised: wild type 0, dead -1); higher = more abundant; growth selection in yeast, the domain comes from the species named
Conditions: Homo sapiens

**Q.** Which abundance fitness does the source give for CFKERTRSLLREWYLQDPYPNPAKKRELAQATGLTPTQVGNWFKNRRQRDR here?
**A.** The abundance fitness was 0.072 ± 0.076.

**Q.** Which abundance fitness does the source give for CFKERTRSLLREWYLQDPYPNPEKKRELAQATGLTPTQVGNWFKNRRQRDR here?
**A.** The abundance fitness was 0.002 ± 0.08.

**Q.** With CFKERTRSLLREWYLQDPYPNPMKKRELAQATGLTPTQVGNWFKNRRQRDR as the variant, how does the abundance fitness read?
**A.** The abundance fitness was -0.277 ± 0.14.

**Q.** For CFKERTRSLLREWYLQDPYPNPHKKRELAQATGLTPTQVGNWFKNRRQRDR, which abundance fitness is on record?
**A.** The abundance fitness was -0.356 ± 0.059.

**Q.** For CFKERTRSLLREWYLQDPYPNPRKKRELAQATGLTPTQVGNWFKNRRQRDR, which abundance fitness is on record?
**A.** The abundance fitness was -0.551 ± 0.074.

**Q.** For CFKERTRSLLREWYLQDPYPNPVKKRELAQATGLTPTQVGNWFKNRRQRDR, which abundance fitness is on record?
**A.** Its abundance fitness is -0.094 ± 0.064.

**Q.** For CFKERTRSLLREWYLQDPYPNPGKKRELAQATGLTPTQVGNWFKNRRQRDR, which abundance fitness is on record?
**A.** The abundance fitness was -0.079 ± 0.056.

**Q.** For CFKERTRSLLREWYLQDPYPNPDKKRELAQATGLTPTQVGNWFKNRRQRDR, which abundance fitness is on record?
**A.** The abundance fitness was 0.175 ± 0.064.

**Q.** With CFKERTRSLLREWYLQDPYPNPTKKRELAQATGLTPTQVGNWFKNRRQRDR as the variant, how does the abundance fitness read?
**A.** Its abundance fitness is -0.005 ± 0.075.

**Q.** For CFKERTRSLLREWYLQDPYPNPWKKRELAQATGLTPTQVGNWFKNRRQRDR, which abundance fitness is on record?
**A.** The abundance fitness was -0.729 ± 0.15.

**Q.** For CFKERTRSLLREWYLQDPYPNPKKKRELAQATGLTPTQVGNWFKNRRQRDR, which abundance fitness is on record?
**A.** The abundance fitness was -0.512 ± 0.19.

**Q.** Which abundance fitness does the source give for CFKERTRSLLREWYLQDPYPNPFKKRELAQATGLTPTQVGNWFKNRRQRDR here?
**A.** Its abundance fitness is -0.343 ± 0.11.

**Q.** For CFKERTRSLLREWYLQDPYPNPNKKRELAQATGLTPTQVGNWFKNRRQRDR, which abundance fitness is on record?
**A.** The abundance fitness was -0.249 ± 0.08.

**Q.** For CFKERTRSLLREWYLQDPYPNPQKKRELAQATGLTPTQVGNWFKNRRQRDR, which abundance fitness is on record?
**A.** Its abundance fitness is -0.022 ± 0.11.

**Q.** Which abundance fitness does the source give for CFKERTRSLLREWYLQDPYPNPYKKRELAQATGLTPTQVGNWFKNRRQRDR here?
**A.** Its abundance fitness is -0.761 ± 0.23.

**Q.** Which abundance fitness does the source give for CFKERTRSLLREWYLQDPYPNPPKKRELAQATGLTPTQVGNWFKNRRQRDR here?
**A.** The abundance fitness was -0.341 ± 0.12.

**Q.** For CFKERTRSLLREWYLQDPYPNPLKKRELAQATGLTPTQVGNWFKNRRQRDR, which abundance fitness is on record?
**A.** The abundance fitness was -0.342 ± 0.059.

**Q.** With CFKERTRSLLREWYLQDPYPNPCKKRELAQATGLTPTQVGNWFKNRRQRDR as the variant, how does the abundance fitness read?
**A.** Its abundance fitness is -0.166 ± 0.17.

**Q.** For CFKERTRSLLREWYLQDPYPNISKKRELAQATGLTPTQVGNWFKNRRQRDR, which abundance fitness is on record?
**A.** The abundance fitness was -0.014 ± 0.05.

**Q.** Which abundance fitness does the source give for CFKERTRSLLREWYLQDPYPNKSKKRELAQATGLTPTQVGNWFKNRRQRDR here?
**A.** The abundance fitness was -0.445 ± 0.078.

**Q.** Which abundance fitness does the source give for CFKERTRSLLREWYLQDPYPNQSKKRELAQATGLTPTQVGNWFKNRRQRDR here?
**A.** Its abundance fitness is -0.212 ± 0.094.

**Q.** With CFKERTRSLLREWYLQDPYPNMSKKRELAQATGLTPTQVGNWFKNRRQRDR as the variant, how does the abundance fitness read?
**A.** Its abundance fitness is -0.266 ± 0.11.

**Q.** Which abundance fitness does the source give for CFKERTRSLLREWYLQDPYPNESKKRELAQATGLTPTQVGNWFKNRRQRDR here?
**A.** The abundance fitness was 0.055 ± 0.048.

**Q.** For CFKERTRSLLREWYLQDPYPNYSKKRELAQATGLTPTQVGNWFKNRRQRDR, which abundance fitness is on record?
**A.** The abundance fitness was -0.102 ± 0.12.

**Q.** With CFKERTRSLLREWYLQDPYPNRSKKRELAQATGLTPTQVGNWFKNRRQRDR as the variant, how does the abundance fitness read?
**A.** The abundance fitness was -0.362 ± 0.06.

**Q.** Which abundance fitness does the source give for CFKERTRSLLREWYLQDPYPNHSKKRELAQATGLTPTQVGNWFKNRRQRDR here?
**A.** Its abundance fitness is -0.717 ± 0.42.

**Q.** For CFKERTRSLLREWYLQDPYPNWSKKRELAQATGLTPTQVGNWFKNRRQRDR, which abundance fitness is on record?
**A.** Its abundance fitness is 0.125 ± 0.087.

**Q.** For CFKERTRSLLREWYLQDPYPNLSKKRELAQATGLTPTQVGNWFKNRRQRDR, which abundance fitness is on record?
**A.** The abundance fitness was 0.156 ± 0.038.

**Q.** For CFKERTRSLLREWYLQDPYPNCSKKRELAQATGLTPTQVGNWFKNRRQRDR, which abundance fitness is on record?
**A.** Its abundance fitness is -0.359 ± 0.21.

**Q.** With CFKERTRSLLREWYLQDPYPNNSKKRELAQATGLTPTQVGNWFKNRRQRDR as the variant, how does the abundance fitness read?
**A.** The abundance fitness was -0.232 ± 0.084.

**Q.** Which abundance fitness does the source give for CFKERTRSLLREWYLQDPYPNASKKRELAQATGLTPTQVGNWFKNRRQRDR here?
**A.** Its abundance fitness is -0.108 ± 0.061.

**Q.** Which abundance fitness does the source give for CFKERTRSLLREWYLQDPYPNDSKKRELAQATGLTPTQVGNWFKNRRQRDR here?
**A.** The abundance fitness was -0.195 ± 0.12.

**Q.** For CFKERTRSLLREWYLQDPYPNVSKKRELAQATGLTPTQVGNWFKNRRQRDR, which abundance fitness is on record?
**A.** The abundance fitness was 0.03 ± 0.058.

**Q.** With CFKERTRSLLREWYLQDPYPNSSKKRELAQATGLTPTQVGNWFKNRRQRDR as the variant, how does the abundance fitness read?
**A.** The abundance fitness was -0.107 ± 0.05.

**Q.** For CFKERTRSLLREWYLQDPYENPSKKRELAQATGLTPTQVGNWFKNRRQRDR, which abundance fitness is on record?
**A.** The abundance fitness was -0.756 ± 0.12.

**Q.** With CFKERTRSLLREWYLQDPYMNPSKKRELAQATGLTPTQVGNWFKNRRQRDR as the variant, how does the abundance fitness read?
**A.** The abundance fitness was -0.663 ± 0.17.

**Q.** With CFKERTRSLLREWYLQDPYGNPSKKRELAQATGLTPTQVGNWFKNRRQRDR as the variant, how does the abundance fitness read?
**A.** Its abundance fitness is -0.764 ± 0.055.

**Q.** For CFKERTRSLLREWYLQDPYNNPSKKRELAQATGLTPTQVGNWFKNRRQRDR, which abundance fitness is on record?
**A.** The abundance fitness was -0.912 ± 0.31.

**Q.** For CFKERTRSLLREWYLQDPYSNPSKKRELAQATGLTPTQVGNWFKNRRQRDR, which abundance fitness is on record?
**A.** The abundance fitness was -1.05 ± 0.3.

**Q.** For CFKERTRSLLREWYLQDPYQNPSKKRELAQATGLTPTQVGNWFKNRRQRDR, which abundance fitness is on record?
**A.** Its abundance fitness is -0.812 ± 0.39.

**Q.** Which abundance fitness does the source give for CFKERTRSLLREWYLQDPYCNPSKKRELAQATGLTPTQVGNWFKNRRQRDR here?
**A.** The abundance fitness was -0.486 ± 0.29.

**Q.** For CFKERTRSLLREWYLQDPYYNPSKKRELAQATGLTPTQVGNWFKNRRQRDR, which abundance fitness is on record?
**A.** The abundance fitness was -0.707 ± 0.075.

**Q.** Which abundance fitness does the source give for CFKERTRSLLREWYLQDPYKNPSKKRELAQATGLTPTQVGNWFKNRRQRDR here?
**A.** Its abundance fitness is -0.977 ± 0.17.

**Q.** Which abundance fitness does the source give for CFKERTRSLLREWYLQDPYVNPSKKRELAQATGLTPTQVGNWFKNRRQRDR here?
**A.** Its abundance fitness is -0.477 ± 0.081.

**Q.** Which abundance fitness does the source give for CFKERTRSLLREWYLQDPYRNPSKKRELAQATGLTPTQVGNWFKNRRQRDR here?
**A.** The abundance fitness was -0.819 ± 0.062.

**Q.** Which abundance fitness does the source give for CFKERTRSLLREWYLQDPYWNPSKKRELAQATGLTPTQVGNWFKNRRQRDR here?
**A.** Its abundance fitness is -1.13 ± 0.18.

**Q.** Which abundance fitness does the source give for CFKERTRSLLREWYLQDPYDNPSKKRELAQATGLTPTQVGNWFKNRRQRDR here?
**A.** The abundance fitness was -0.845 ± 0.13.

**Q.** For CFKERTRSLLREWYLQDPYFNPSKKRELAQATGLTPTQVGNWFKNRRQRDR, which abundance fitness is on record?
**A.** Its abundance fitness is -0.799 ± 0.11.

**Q.** With CFKERTRSLLREWYLQDPYTNPSKKRELAQATGLTPTQVGNWFKNRRQRDR as the variant, how does the abundance fitness read?
**A.** Its abundance fitness is -0.838 ± 0.23.

**Q.** With CFKERTRSLLREWYLQDPYLNPSKKRELAQATGLTPTQVGNWFKNRRQRDR as the variant, how does the abundance fitness read?
**A.** Its abundance fitness is -0.339 ± 0.1.

**Q.** For CFKERTRSLLREWYLQDPYANPSKKRELAQATGLTPTQVGNWFKNRRQRDR, which abundance fitness is on record?
**A.** The abundance fitness was -0.425 ± 0.14.
